The text below walks through data of IntAct's records for PubMed 21673656.

B1: Flagellar motor switch protein FliG (Escherichia coli (strain K12)), P0ABZ1 (parent)
chain: MSNLTGTDKSVILLMTIGEDRAAEVFKHLSQREVQTLSAAMANVTQISNKQLTDVLAEFEQEAEQFAALNINANDYLRSVLVKALGEERAASLLEDILETRDTASGIETLNFMEPQSAADLIRDEHPQIIATILVHLKRAQAADILALFDERLRHDVMLRIATFGGVQPAALAELTEVLNGLLDGQNLKRSKMGGVRTAAEIINLMKTQQEEAVITAVREFDGELAQKIIDEMFLFENLVDVDDRSIQRLLQEVDSESLLIALKGAEQPLREKFLRNMSQRAADILRDDLANRGPVRLSQVENEQKAILLIVRRLAETGEMVIGSGEDTYV
partner: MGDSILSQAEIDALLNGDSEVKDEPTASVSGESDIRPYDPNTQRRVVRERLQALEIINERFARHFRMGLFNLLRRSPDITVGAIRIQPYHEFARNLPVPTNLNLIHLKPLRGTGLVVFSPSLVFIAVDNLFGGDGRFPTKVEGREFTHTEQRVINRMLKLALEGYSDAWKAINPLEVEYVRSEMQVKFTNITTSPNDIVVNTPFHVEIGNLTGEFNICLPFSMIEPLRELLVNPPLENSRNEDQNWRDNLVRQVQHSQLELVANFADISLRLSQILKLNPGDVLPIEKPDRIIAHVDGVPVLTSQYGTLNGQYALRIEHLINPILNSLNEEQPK
B2: Flagellar motor switch protein FliM (Escherichia coli (strain K12)), P06974 (parent)
chain: B1 partner
partner: B1 chain

In the first assay the parent is B1. The conditions noted are these: with flim_ecoli fliM, P06974.
For MSNLTGTDKSVILLMTIGEDRAAEVFKHLSQREVQTLSAAMANVTQISNKQLTDVLAEFEQEAEQFAALNINANDYLRSVLVKALGEERAASLLEDILETRDTASGIETLNFMEPQSAADLIRDEHPQCIATILVHLKRAQAADILALFDERLRHDVMLRIATFGGVQPAALAELTEVLNGLLDGQNLKRSKMGGVRTAAEIINLMKTQQEEAVITAVREFDGELAQKIIDEMFLFENLVDVDDRSIQRLLQEVDSESLLIALKGAEQPLREKFLRNMSQRAADILRDDLANRGPVRLSQVENEQKAILLIVRRLAETGEMVIGSGEDTYV [I129C], the “effect of a mutation on the interaction” value is given as “increasing interaction”.

In the next assay the parent is B1. The conditions noted are these: with flim_ecoli fliM, P06974. This is another data set of the same source.
MSNLTGTDKSVILLMTIGEDRAAEVFKHLSQREVQTLSAAMANVTQISNKQLTDVLAEFEQEAEQFAALNINANDYLRSVLVKALGEERAASLLEDILETRDTASGIETLNFMEPQSAADLIRDEHPQIIATILVHLKRAQAADILALFDERLRHDVMLRIATFGGVQPAALAELTEVLNGLLDGQNLKRSKMGGVRTAAEIINLCKTQQEEAVITAVREFDGELAQKIIDEMFLFENLVDVDDRSIQRLLQEVDSESLLIALKGAEQPLREKFLRNMSQRAADILRDDLANRGPVRLSQVENEQKAILLIVRRLAETGEMVIGSGEDTYV [M206C]: the “effect of a mutation on the interaction” value is listed as “increasing interaction”.

Another assay covers variants of B1. Particulars: with flim_ecoli fliM.
For the variant MSNLTGTDKSVILLMTIGEDRAAEVFKHLSQREVQTLSAAMANVTQISNKQLTDVLAEFEQEAEQFAALNINANDYLRSVLVKALGEERAASLLEDILETRDTASGIETLNFMEPQSAADLIRDEHPQIIATILVHLKRAQAADILALFDERLRHDVMLRIATFGGVQPAALAELTEVLNGLLDGQNLKRSKMGGVRTAAEIINLMKTQQEEAVITAVREFDGEWAQKIIDEMFLFENLVDVDDRSIQRLLQEVDSESLLIALKGAEQPLREKFLRNMSQRAADILRDDLANRGPVRLSQVENEQKAILLIVRRLAETGEMVIGSGEDTYV [L225W], the “effect of a mutation on the interaction” value was “disrupting interaction”.

In a further assay the parent is B1. Particulars: with flim_ecoli fliM. This is another data set of the same source.
In the case of MSNLTGTDKSVILLMTIGEDRAAEVFKHLSQREVQTLSAAMANVTQISNKQLTDVLAEFEQEAEQFAALNINANDYLRSVLVKALGEERAASLLEDILETRDTASGIETLNFMEPQSAADLIRDEHPQIIATILVHLKRAQAADILALFDERLRHDVMLRIATFGGVQPAALAELTEVLNGLLDGQNLKRSKMGGVRTAAEIINLMKTQQEEAVITAVREFDGECAQKIIDEMFLFENLVDVDDRSIQRLLQEVDSESLLIALKGAEQPLREKFLRNMSQRAADILRDDLANRGPVRLSQVENEQKAILLIVRRLAETGEMVIGSGEDTYV [L225C], the “effect of a mutation on the interaction” value is “increasing interaction”.

In another assay the parent is B1. The conditions noted are these: with flim_ecoli fliM. The source holds these as a separate data set.
On to MSNLTGTDKSVILLMTIGEDRAAEVFKHLSQREVQTLSAAMANVTQISNKQLTDVLAEFEQEAEQFAALNINANDYLRSVLVKALGEERAASLLEDILETRDTASGIETLNFMEPQSAADLIRDEHPQIIATILVHLKRAQAADILALFDERLRHDVMLRIATFGGVQPAALAELTEVLNGLLDGQNLKRSKMGGVRTAAEWINLMKTQQEEAVITAVREFDGELAQKIIDEMFLFENLVDVDDRSIQRLLQEVDSESLLIALKGAEQPLREKFLRNMSQRAADILRDDLANRGPVRLSQVENEQKAILLIVRRLAETGEMVIGSGEDTYV [I202W], for which the “effect of a mutation on the interaction” value is listed as “disrupting interaction”.

Variants of B2 are the subject of the next assay. The conditions noted are these: with flig_ecoli fliG.
Take MGDSILSQAEIDALLNGDSEVKDEPTASVSGESDIRPYDPNTQRRVVRERLQALEIINERFARHFRMGLFNLLRRSPDITVGAIRIQPYHEFARNLPVPTNLNLIHLKPLRGTGLVVFSPSLVFIAVDNLFGGDGRFPTKVEGREFTHTEQRVINRMLKEALEGYSDAWKAINPLEVEYVRSEMQVKFTNITTSPNDIVVNTPFHVEIGNLTGEFNICLPFSMIEPLRELLVNPPLENSRNEDQNWRDNLVRQVQHSQLELVANFADISLRLSQILKLNPGDVLPIEKPDRIIAHVDGVPVLTSQYGTLNGQYALRIEHLINPILNSLNEEQPK [L160E]: the “effect of a mutation on the interaction” value is “decreasing interaction”.

The variants in another assay derive from B2. Particulars: with flig_ecoli fliG. This is another data set of the same source.
Regarding MGDSILSQAEIDALLNGDSEVKDEPTASVSGESDIRPYDPNTQRRVVRERLQALEIINERFARHFRMGLFNLLRRSPDITVGAIRIQPYHEFARNLPVPTNLNLIHLKPLRGTGLVVFSPSLVFIAVDNLFGGDGRFPTKVEGREFTHDEQRVINRMLKLALEGYSDAWKAINPLEVEYVRSEMQVKFTNITTSPNDIVVNTPFHVEIGNLTGEFNICLPFSMIEPLRELLVNPPLENSRNEDQNWRDNLVRQVQHSQLELVANFADISLRLSQILKLNPGDVLPIEKPDRIIAHVDGVPVLTSQYGTLNGQYALRIEHLINPILNSLNEEQPK [T149D], the “effect of a mutation on the interaction” value is “decreasing interaction”.

The variants in another assay derive from B2. Particulars: with flig_ecoli fliG, P0ABZ1.
For MGDSILSQAEIDALLNGDSEVKDEPTASVSGESDIRPYDPNTQRRVVRERLQALEIINERFARHFRMGLFNLLRRSPDITVGAIRIQPYHEFARNLPVPTNLNLIHLKPLRGTGLVVFSPSLVFIAVDNLFGGDGRFPTKVEGREFTHCEQRVINRMLKLALEGYSDAWKAINPLEVEYVRSEMQVKFTNITTSPNDIVVNTPFHVEIGNLTGEFNICLPFSMIEPLRELLVNPPLENSRNEDQNWRDNLVRQVQHSQLELVANFADISLRLSQILKLNPGDVLPIEKPDRIIAHVDGVPVLTSQYGTLNGQYALRIEHLINPILNSLNEEQPK [T149C], the “effect of a mutation on the interaction” value is listed as “increasing interaction”.

Variants of B2 are the subject of another assay. The conditions noted are these: with flig_ecoli fliG. This is another data set of the same source.
Turning to MGDSILSQAEIDALLNGDSEVKDEPTASVSGESDIRPYDPNTQRRVVRERLQALEIINERFARHFRMGLFNLLRRSPDITVGAIRIQPYHEFARNLPVPTNLNLIHLKPLRGTGLVVFSPSLVFIAVDNLFGGDGRFPTKVEGREFTHTEQRDINRMLKLALEGYSDAWKAINPLEVEYVRSEMQVKFTNITTSPNDIVVNTPFHVEIGNLTGEFNICLPFSMIEPLRELLVNPPLENSRNEDQNWRDNLVRQVQHSQLELVANFADISLRLSQILKLNPGDVLPIEKPDRIIAHVDGVPVLTSQYGTLNGQYALRIEHLINPILNSLNEEQPK [V153D], the “effect of a mutation on the interaction” value was “decreasing interaction”.

Variants of B2 are the subject of another assay. Particulars: with flig_ecoli fliG. This is another data set of the same source.
For MGDSILSQAEIDALLNGDSEVKDEPTASVSGESDIRPYDPNTQRRVVRERLQALEIINERFARHFRMGLFNLLRRSPDITVGAIRIQPYHEFARNLPVPTNLNLIHLKPLRGTGLVVFSPSLVFIAVDNLFGGDGRFPTKVEGREFTHTEQRCINRMLKLALEGYSDAWKAINPLEVEYVRSEMQVKFTNITTSPNDIVVNTPFHVEIGNLTGEFNICLPFSMIEPLRELLVNPPLENSRNEDQNWRDNLVRQVQHSQLELVANFADISLRLSQILKLNPGDVLPIEKPDRIIAHVDGVPVLTSQYGTLNGQYALRIEHLINPILNSLNEEQPK [V153C], the “effect of a mutation on the interaction” value was “increasing interaction”.

The variants in another assay derive from B2. The conditions noted are these: with flig_ecoli fliG. The source holds these as a separate data set.
On to MGDSILSQAEIDALLNGDSEVKDEPTASVSGESDIRPYDPNTQRRVVRERLQALEIINERFARHFRMGLFNLLRRSPDITVGAIRIQPYHEFARNLPVPTNLNLIHLKPLRGTGLVVFSPSLVFIAVDNLFGWDGRFPTKVEGREFTHTEQRVINRMLKLALEGYSDAWKAINPLEVEYVRSEMQVKFTNITTSPNDIVVNTPFHVEIGNLTGEFNICLPFSMIEPLRELLVNPPLENSRNEDQNWRDNLVRQVQHSQLELVANFADISLRLSQILKLNPGDVLPIEKPDRIIAHVDGVPVLTSQYGTLNGQYALRIEHLINPILNSLNEEQPK [G133W], for which the “effect of a mutation on the interaction” value is reported as “disrupting interaction”.

The variants in a further assay derive from B2. The conditions noted are these: with flig_ecoli fliG. The source holds these as a separate data set.
As to MGDSILSQAEIDALLNGDSEVKDEPTASVSGESDIRPYDPNTQRRVVRERLQALEIINERFARHFRMGLFNLLRRSPDITVGAIRIQPYHEFARNLPVPTNLNLIHLKPLRGTGLVVFSPSLVFIAVDNLFGGDGRFPTKVEGREFTHTEQRVINDMLKLALEGYSDAWKAINPLEVEYVRSEMQVKFTNITTSPNDIVVNTPFHVEIGNLTGEFNICLPFSMIEPLRELLVNPPLENSRNEDQNWRDNLVRQVQHSQLELVANFADISLRLSQILKLNPGDVLPIEKPDRIIAHVDGVPVLTSQYGTLNGQYALRIEHLINPILNSLNEEQPK [R156D], the “effect of a mutation on the interaction” value was “disrupting interaction”.

Variants of B2 are the subject of a further assay. Particulars: with flig_ecoli fliG. This is another data set of the same source.
With MGDSILSQAEIDALLNGDSEVKDEPTASVSGESDIRPYDPNTQRRVVRERLQALEIINERFARHFRMGLFNLLRRSPDITVGAIRIQPYHEFARNLPVPTNLNLIHLKPLRGTGLVVFSPSLVFIAVDNLDGGDGRFPTKVEGREFTHTEQRVINRMLKLALEGYSDAWKAINPLEVEYVRSEMQVKFTNITTSPNDIVVNTPFHVEIGNLTGEFNICLPFSMIEPLRELLVNPPLENSRNEDQNWRDNLVRQVQHSQLELVANFADISLRLSQILKLNPGDVLPIEKPDRIIAHVDGVPVLTSQYGTLNGQYALRIEHLINPILNSLNEEQPK [F131D], the “effect of a mutation on the interaction” value is listed as “disrupting interaction”.

The next assay covers variants of B2. Particulars: with flig_ecoli fliG, P0ABZ1. This is another data set of the same source.
On to MGDSILSQAEIDALLNGDSEVKDEPTASVSGESDIRPYDPNTQRRVVRERLQALEIINERFARHFRMGLFNLLRRSPDITVGAIRIQPYHEFARNLPVPTNLNLIHLKPLRGTGLVVFSPSLVFIAVDNLCGGDGRFPTKVEGREFTHTEQRVINRMLKLALEGYSDAWKAINPLEVEYVRSEMQVKFTNITTSPNDIVVNTPFHVEIGNLTGEFNICLPFSMIEPLRELLVNPPLENSRNEDQNWRDNLVRQVQHSQLELVANFADISLRLSQILKLNPGDVLPIEKPDRIIAHVDGVPVLTSQYGTLNGQYALRIEHLINPILNSLNEEQPK [F131C], for which the “effect of a mutation on the interaction” value was “increasing interaction”.
